Reference: the supplement of paper PMC10567573

B1: YPEL3 (parent)
chain: SKPKTFQAYLDDCHRRYSCAHCRA

Variants of: B1
Assay: protein stability index of a GFP-peptide fusion (GPS, HEK-293T) (PSI 1-6); higher = more stable
Conditions: c terminus: a fixed tail appended
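Also: lentivirally expressed fusions sorted by FACS into six bins by GFP to DsRed ratio, PSI derived from sequencing read proportions per bin multiplied by bin number.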

Variant	protein stability index
SKGKTFQAYLDDCHRRYSCAHCRA [P3G]	2.13
SKMKTFQAYLDDCHRRYSCAHCRA [P3M]	3.01
SKDKTFQAYLDDCHRRYSCAHCRA [P3D]	2.11
SKNKTFQAYLDDCHRRYSCAHCRA [P3N]	2.26
SKWKTFQAYLDDCHRRYSCAHCRA [P3W]	1.8
SKAKTFQAYLDDCHRRYSCAHCRA [P3A]	1.66
SKVKTFQAYLDDCHRRYSCAHCRA [P3V]	2
SKQKTFQAYLDDCHRRYSCAHCRA [P3Q]	1.97
SKLKTFQAYLDDCHRRYSCAHCRA [P3L]	2.13
SKEKTFQAYLDDCHRRYSCAHCRA [P3E]	2.31
SKRKTFQAYLDDCHRRYSCAHCRA [P3R]	2.05
SKFKTFQAYLDDCHRRYSCAHCRA [P3F]	3.23
SKTKTFQAYLDDCHRRYSCAHCRA [P3T]	1.92
SKCKTFQAYLDDCHRRYSCAHCRA [P3C]	2.6
SKYKTFQAYLDDCHRRYSCAHCRA [P3Y]	1.72
SKSKTFQAYLDDCHRRYSCAHCRA [P3S]	1.82
SKIKTFQAYLDDCHRRYSCAHCRA [P3I]	2.19
EKPKTFQAYLDDCHRRYSCAHCRA [S1E]	1.52
YKPKTFQAYLDDCHRRYSCAHCRA [S1Y]	1.99
CKPKTFQAYLDDCHRRYSCAHCRA [S1C]	2.29
RKPKTFQAYLDDCHRRYSCAHCRA [S1R]	1.92
GKPKTFQAYLDDCHRRYSCAHCRA [S1G]	2.07
KKPKTFQAYLDDCHRRYSCAHCRA [S1K]	1.98
AKPKTFQAYLDDCHRRYSCAHCRA [S1A]	2.11

Variant	protein stability index
IKPKTFQAYLDDCHRRYSCAHCRA [S1I]	2.81
VKPKTFQAYLDDCHRRYSCAHCRA [S1V]	1.38
PKPKTFQAYLDDCHRRYSCAHCRA [S1P]	2.67
MKPKTFQAYLDDCHRRYSCAHCRA [S1M]	2
HKPKTFQAYLDDCHRRYSCAHCRA [S1H]	2.07
LKPKTFQAYLDDCHRRYSCAHCRA [S1L]	3.27
FKPKTFQAYLDDCHRRYSCAHCRA [S1F]	1.67
NKPKTFQAYLDDCHRRYSCAHCRA [S1N]	2.04
QKPKTFQAYLDDCHRRYSCAHCRA [S1Q]	2.08
WKPKTFQAYLDDCHRRYSCAHCRA [S1W]	1.66
DKPKTFQAYLDDCHRRYSCAHCRA [S1D]	2.21
SKPKWFQAYLDDCHRRYSCAHCRA [T5W]	1.99
SKPKAFQAYLDDCHRRYSCAHCRA [T5A]	2.46
SKPKMFQAYLDDCHRRYSCAHCRA [T5M]	2.56
SKPKYFQAYLDDCHRRYSCAHCRA [T5Y]	1.97
SKPKCFQAYLDDCHRRYSCAHCRA [T5C]	2.33
SKPKDFQAYLDDCHRRYSCAHCRA [T5D]	2.94
SKPKSFQAYLDDCHRRYSCAHCRA [T5S]	1.77
SKPKFFQAYLDDCHRRYSCAHCRA [T5F]	1.84
SKPKKFQAYLDDCHRRYSCAHCRA [T5K]	2.25
SKPKHFQAYLDDCHRRYSCAHCRA [T5H]	2.57
SKPKQFQAYLDDCHRRYSCAHCRA [T5Q]	2.55
SKPKIFQAYLDDCHRRYSCAHCRA [T5I]	2.75
SKPKNFQAYLDDCHRRYSCAHCRA [T5N]	2.53

Variant	protein stability index
SKPKLFQAYLDDCHRRYSCAHCRA [T5L]	2.37
SKPKEFQAYLDDCHRRYSCAHCRA [T5E]	3.37
SKPKRFQAYLDDCHRRYSCAHCRA [T5R]	2.85
SKPKVFQAYLDDCHRRYSCAHCRA [T5V]	2.05
SKPKPFQAYLDDCHRRYSCAHCRA [T5P]	2.43
SKPKGFQAYLDDCHRRYSCAHCRA [T5G]	2.11
SKPHTFQAYLDDCHRRYSCAHCRA [K4H]	2.59
SKPWTFQAYLDDCHRRYSCAHCRA [K4W]	1.59
SKPMTFQAYLDDCHRRYSCAHCRA [K4M]	2.28
SKPTTFQAYLDDCHRRYSCAHCRA [K4T]	1.74
SKPNTFQAYLDDCHRRYSCAHCRA [K4N]	1.87
SKPCTFQAYLDDCHRRYSCAHCRA [K4C]	1.86
SKPDTFQAYLDDCHRRYSCAHCRA [K4D]	1.86
SKPYTFQAYLDDCHRRYSCAHCRA [K4Y]	2.04
SKPRTFQAYLDDCHRRYSCAHCRA [K4R]	1.86
SKPQTFQAYLDDCHRRYSCAHCRA [K4Q]	1.8
SKPFTFQAYLDDCHRRYSCAHCRA [K4F]	1.72
SKPVTFQAYLDDCHRRYSCAHCRA [K4V]	2.57
SKPATFQAYLDDCHRRYSCAHCRA [K4A]	2.47
SKPGTFQAYLDDCHRRYSCAHCRA [K4G]	2.71
SKPETFQAYLDDCHRRYSCAHCRA [K4E]	2.09
SKPITFQAYLDDCHRRYSCAHCRA [K4I]	1.6
SKPLTFQAYLDDCHRRYSCAHCRA [K4L]	2.42
SKPPTFQAYLDDCHRRYSCAHCRA [K4P]	1.9

Variant	protein stability index
SKPSTFQAYLDDCHRRYSCAHCRA [K4S]	2.5
SKPKTAQAYLDDCHRRYSCAHCRA [F6A]	2.95
SKPKTCQAYLDDCHRRYSCAHCRA [F6C]	2.84
SVPKTFQAYLDDCHRRYSCAHCRA [K2V]	2.22
SMPKTFQAYLDDCHRRYSCAHCRA [K2M]	1.7
SNPKTFQAYLDDCHRRYSCAHCRA [K2N]	2.34
SAPKTFQAYLDDCHRRYSCAHCRA [K2A]	2.18
SIPKTFQAYLDDCHRRYSCAHCRA [K2I]	1.63
STPKTFQAYLDDCHRRYSCAHCRA [K2T]	2.19
SLPKTFQAYLDDCHRRYSCAHCRA [K2L]	1.85
SQPKTFQAYLDDCHRRYSCAHCRA [K2Q]	2.31
SGPKTFQAYLDDCHRRYSCAHCRA [K2G]	2.34
SDPKTFQAYLDDCHRRYSCAHCRA [K2D]	2.89
SWPKTFQAYLDDCHRRYSCAHCRA [K2W]	2.58
SEPKTFQAYLDDCHRRYSCAHCRA [K2E]	1.63
SHPKTFQAYLDDCHRRYSCAHCRA [K2H]	2
SCPKTFQAYLDDCHRRYSCAHCRA [K2C]	2.38
SRPKTFQAYLDDCHRRYSCAHCRA [K2R]	1.89
SSPKTFQAYLDDCHRRYSCAHCRA [K2S]	1.8
SFPKTFQAYLDDCHRRYSCAHCRA [K2F]	1.88
SYPKTFQAYLDDCHRRYSCAHCRA [K2Y]	1.85
SPPKTFQAYLDDCHRRYSCAHCRA [K2P]	1.95
